Experimental data published in IntAct's records for PubMed 10675337.

B1: GA-binding protein subunit beta-1 (Homo sapiens), Q06547-2 (parent)
chain: MSLVDLGKKLLEAARAGQDDEVRILMANGAPFTTDWLGTSPLHLAAQYGHYSTTEVLLRAGVSRDARTKVDRTPLHMAASEGHASIVEVLLKHGADVNAKDMLKMTALHWATEHNHQEVVELLIKYGADVHTQSKFCKTAFDISIDNGNEDLAEILQIAMQNQINTNPESPDTVTIHAATPQFIIGPGGVVNLTDETGVSAVQFGNSSTSVLATLAALAEASAPLSNSSETPVVATEEVVTAESVDGAIQQVVSSGGQQVITIVTDGIQLGNLHSIPTSGIGQPIIVTMPDGQQVLTVPATDIAEETVISEEPPAKRQCIEIIENRVESAEIEEREALQKQLDEANREAQKYRQQLLKKEQEAEAYRQKLEAMTRLQTNKEAV

Variants of: B1
Conditions: with hcfc1_human HCFC1, P51610
Sequence of hcfc1_human HCFC1, P51610 (P51610 whole entry): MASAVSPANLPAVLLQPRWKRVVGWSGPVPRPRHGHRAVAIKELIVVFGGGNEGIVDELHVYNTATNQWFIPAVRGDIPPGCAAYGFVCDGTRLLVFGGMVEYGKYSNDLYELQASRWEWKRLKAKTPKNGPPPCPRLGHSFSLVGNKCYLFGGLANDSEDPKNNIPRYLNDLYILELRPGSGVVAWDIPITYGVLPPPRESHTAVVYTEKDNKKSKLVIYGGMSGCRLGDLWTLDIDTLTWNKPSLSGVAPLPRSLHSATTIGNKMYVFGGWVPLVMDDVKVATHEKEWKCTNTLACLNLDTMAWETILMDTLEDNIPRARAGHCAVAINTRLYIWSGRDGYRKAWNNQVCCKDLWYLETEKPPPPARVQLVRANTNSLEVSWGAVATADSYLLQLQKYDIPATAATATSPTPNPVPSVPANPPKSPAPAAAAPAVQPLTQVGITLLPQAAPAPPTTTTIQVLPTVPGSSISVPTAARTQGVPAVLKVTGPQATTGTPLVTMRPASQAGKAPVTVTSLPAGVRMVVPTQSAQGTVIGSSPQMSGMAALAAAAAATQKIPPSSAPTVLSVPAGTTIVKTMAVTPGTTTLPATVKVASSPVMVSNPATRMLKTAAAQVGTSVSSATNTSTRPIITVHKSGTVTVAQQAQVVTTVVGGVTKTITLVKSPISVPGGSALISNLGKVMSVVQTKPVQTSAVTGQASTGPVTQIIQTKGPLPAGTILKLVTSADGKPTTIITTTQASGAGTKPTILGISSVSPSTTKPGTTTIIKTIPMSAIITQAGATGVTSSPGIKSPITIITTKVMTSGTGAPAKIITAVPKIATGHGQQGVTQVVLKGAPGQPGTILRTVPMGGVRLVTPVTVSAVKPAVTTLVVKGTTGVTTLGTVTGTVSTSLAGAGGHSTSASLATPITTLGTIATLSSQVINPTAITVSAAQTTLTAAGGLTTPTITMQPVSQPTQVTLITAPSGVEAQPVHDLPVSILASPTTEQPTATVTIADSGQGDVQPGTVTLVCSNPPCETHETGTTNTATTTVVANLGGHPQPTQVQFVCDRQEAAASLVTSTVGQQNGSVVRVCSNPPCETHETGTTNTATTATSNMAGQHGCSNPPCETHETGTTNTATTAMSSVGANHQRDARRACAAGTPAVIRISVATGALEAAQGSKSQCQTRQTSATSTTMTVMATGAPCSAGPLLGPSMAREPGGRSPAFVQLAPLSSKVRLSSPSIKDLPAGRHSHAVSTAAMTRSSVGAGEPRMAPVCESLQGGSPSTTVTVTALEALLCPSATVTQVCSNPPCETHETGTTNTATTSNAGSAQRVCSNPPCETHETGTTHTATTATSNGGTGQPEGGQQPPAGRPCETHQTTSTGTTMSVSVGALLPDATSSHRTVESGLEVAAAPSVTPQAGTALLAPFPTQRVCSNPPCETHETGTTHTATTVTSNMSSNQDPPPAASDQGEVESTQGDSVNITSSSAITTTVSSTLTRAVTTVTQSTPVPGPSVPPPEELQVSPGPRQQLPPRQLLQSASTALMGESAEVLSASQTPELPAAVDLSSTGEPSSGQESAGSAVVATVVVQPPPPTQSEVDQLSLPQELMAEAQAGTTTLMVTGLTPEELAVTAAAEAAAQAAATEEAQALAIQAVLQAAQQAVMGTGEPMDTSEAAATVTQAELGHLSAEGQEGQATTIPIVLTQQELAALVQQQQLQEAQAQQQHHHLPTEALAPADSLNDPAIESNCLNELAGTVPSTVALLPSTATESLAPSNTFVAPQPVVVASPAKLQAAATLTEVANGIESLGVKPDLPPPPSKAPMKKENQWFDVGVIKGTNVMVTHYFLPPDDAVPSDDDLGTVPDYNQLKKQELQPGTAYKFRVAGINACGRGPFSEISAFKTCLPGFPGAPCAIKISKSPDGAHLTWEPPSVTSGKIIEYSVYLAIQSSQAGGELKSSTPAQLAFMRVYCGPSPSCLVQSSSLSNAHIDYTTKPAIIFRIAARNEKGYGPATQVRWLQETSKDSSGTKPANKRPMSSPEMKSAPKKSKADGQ

effect of a mutation on the interaction | Variant
decreasing interaction | MSLVDLGKKLLEAARAGQDDEVRILMANGAPFTTDWLGTSPLHLAAQYGHYSTTEVLLRAGVSRDARTKVDRTPLHMAASEGHASIVEVLLKHGADVNAKDMLKMTALHWATEHNHQEVVELLIKYGADVHTQSKFCKTAFDISIDNGNEDLAEILQIAMQNQINTNPESPDTVTIHAATPQFIIGPGGVVNLTDETGVSAVQFGNSSTSVLATLAALAEASAPLSNSSETPVVATEEVVTAESVDGAIQQAASSGGQQVITIVTDGIQLGNLHSIPTSGIGQPIIVTMPDGQQVLTVPATDIAEETVISEEPPAKRQCIEIIENRVESAEIEEREALQKQLDEANREAQKYRQQLLKKEQEAEAYRQKLEAMTRLQTNKEAV [V252A;V253A]
decreasing interaction | MSLVDLGKKLLEAARAGQDDEVRILMANGAPFTTDWLGTSPLHLAAQYGHYSTTEVLLRAGVSRDARTKVDRTPLHMAASEGHASIVEVLLKHGADVNAKDMLKMTALHWATEHNHQEVVELLIKYGADVHTQSKFCKTAFDISIDNGNEDLAEILQIAMQNQINTNPESPDTVTIHAATPQFIIGPGGVVNLTDETGVSAVQFGNSSTSVLATLAALAEASAPLSNSSETPVVATEEVVTAESVDGAIQQVVSSGGQQVITIVTDGIQLGNLHSIPTSGIGQPIIVTMPDGQQALTAPATDIAEETVISEEPPAKRQCIEIIENRVESAEIEEREALQKQLDEANREAQKYRQQLLKKEQEAEAYRQKLEAMTRLQTNKEAV [V295A;V298A]
